Laboratory results taken from article PMC8041770 (2021).

B1: yeast-displayed wild-type human LIFR CBM I–Ig-like domains (Gln45 to Gln337) [human] / recombinant human LIF, histidine-tagged (hLIF-His) [human] (parent complex)
chain 1: QKKGAPHDLKCVTNNLQVWNCSWKAPSGTGRGTDYEVCIENRSRSCYQLEKTSIKIPALSHGDYEITINSLHDFGSSTSKFTLNEQNVSLIPDTPEILNLSADFSTSTLYLKWNDRGSVFPHRSNVIWEIKVLRKESMELVKLVTHNTTLNGKDTLHHWSWASDMPLECAIHFVEIRCYIDNLHFSGLEEWSDWSPVKNISWIPDSQTKVFPQDKVILVGSDITFCCVSQEKVLSALIGHTNCPLIHLDGENVAIKIRNISVSASSGTNVVFTTEDNIFGTVIFAGYPPDTPQ
chain 2: not shown

Variants of: B1
Assay: flow cytometry of yeast-displayed LIFR variants; parent: 1; read off a plot

Variant | ratio to parent
chain 1 I217V, chain 1 L218P, chain 1 H240R, chain 1 N242D, chain 1 I257V, chain 1 I260V, chain 1 V262A, chain 1 T273I, chain 1 N277D | ~13
chain 1 I217V, chain 1 L218P, chain 1 N242D, chain 1 I257V, chain 1 I260V, chain 1 V262A, chain 1 T273I, chain 1 N277D | ~12
chain 1 L218P, chain 1 N242D, chain 1 I257V, chain 1 N277D | ~6

Continued, values first:

ratio to parent | Variant
~13 | chain 1 L218P, chain 1 H240R, chain 1 N242D, chain 1 I257V, chain 1 I260V, chain 1 V262A, chain 1 T273I, chain 1 N277D
~12 | chain 1 L218P, chain 1 H240R, chain 1 I257V, chain 1 V262A, chain 1 T273I, chain 1 N277D
~15 | chain 1 L218P, chain 1 H240R, chain 1 I257V, chain 1 I260V, chain 1 V262A, chain 1 T273I, chain 1 N277D
~6 | chain 1 I217V, chain 1 L218P, chain 1 N242D, chain 1 V262A, chain 1 T273I, chain 1 N277D
